Assays:
[1] = target: GST-tagged Nsp3 Ubl1 (UniProt P0DTD1); test: SPOT array alanine scan; conditions: parent: est. 0; read off a plot
[2] = target: GST-tagged Nsp16 (UniProt P0DTD1); test: SPOT array alanine scan; conditions: parent: est. 0; read off a plot
[3] = target: Nsp3 Ubl1 (SARS-CoV-2) (UniProt P0DTD1); test: fluorescence polarisation
[4] = target: GST-tagged Nsp3 ADRP (UniProt P0DTD1); test: SPOT array alanine scan; conditions: parent: est. -10; read off a plot
[5] = target: FITC-DYRK1B_(394–409) (human) (UniProt Q9Y463); test: fluorescence polarisation

| Substance | other: signal change in % [1] [%] | other: signal change in % [4] [%] | also measured |
| --- | --- | --- | --- |
| NCOA2_(1074–1089) on the SPOT array L1085A | -50 |  |  |
| ICA1L_(450–465) on the SPOT array P14A |  |  | other: signal change in % [2]: -22% |
| N_(216–231) peptide (from UniProt P0DTC9 216-231) |  |  | fold higher KD than NCOA2 (1074–1089) [3]: 2 fold |
| NCOA2_(1074–1089) on the SPOT array D1081A | -20 |  |  |
| MBOAT1_(16–31) on the SPOT array E25A |  | -100 |  |
| MBOAT1_(16–31) on the SPOT array L26A |  | -45 |  |
| MBOAT1_(16–31) on the SPOT array L20A |  | -5 |  |
| MBOAT1_(16–31) on the SPOT array L23A |  | -100 |  |
| ICA1L_(450–465) on the SPOT array S3A |  |  | other: signal change in % [2]: -57% |
| NCOA2_(1074–1089) on the SPOT array L1079A | -10 |  |  |
| ICA1L_(450–465) on the SPOT array W5A |  |  | other: signal change in % [2]: -100% |
| ICA1L_(450–465) on the SPOT array S16A |  |  | other: signal change in % [2]: -10% |
| MBOAT1_(16–31) on the SPOT array Y19A |  | 30 |  |
| ICA1L_(450–465) on the SPOT array L8A |  |  | other: signal change in % [2]: -35% |
| NCOA2_(1074–1089) on the SPOT array Y1084A | -62 |  |  |
| MBOAT1_(16–31) on the SPOT array T18A |  | 10 |  |
| MBOAT1_(16–31) on the SPOT array P22A |  | -70 |  |
| Nsp16 (from UniProt P0DTD1 6799-7096) (enzyme) |  |  | Kd [5]: 3 µM |
| MBOAT1_(16–31) on the SPOT array S17A |  | -25 |  |
| NCOA2_(1074–1089) on the SPOT array L1083A | -35 |  |  |
| ICA1L_(450–465) on the SPOT array F9A |  |  | other: signal change in % [2]: -88% |
| ICA1L_(450–465) on the SPOT array M2A |  |  | other: signal change in % [2]: -57% |
| NCOA2_(1074–1089) on the SPOT array R1088A | -30 |  |  |

| Substance | other: signal change in % [1] [%] | other: signal change in % [4] [%] | also measured |
| --- | --- | --- | --- |
| ICA1L_(450–465) on the SPOT array L12A |  |  | other: signal change in % [2]: -20% |
| ICA1L_(450–465) on the SPOT array F6A |  |  | other: signal change in % [2]: -50% |
| MBOAT1_(16–31) on the SPOT array G16A |  | -15 |  |
| MBOAT1_(16–31) on the SPOT array I29A |  | -5 |  |
| MBOAT1_(16–31) on the SPOT array S24A |  | -90 |  |
| MBOAT1_(16–31) on the SPOT array P30A |  | -45 |  |
| NCOA2_(1074–1089) on the SPOT array L1080A | -85 |  |  |
| ICA1L_(450–465) on the SPOT array D1A |  |  | other: signal change in % [2]: -25% |
| NCOA2_(1074–1089) on the SPOT array E1076A | -40 |  |  |
| MBOAT1_(16–31) on the SPOT array G28A |  | -50 |  |
| ICA1L_(450–465) on the SPOT array N7A |  |  | other: signal change in % [2]: -48% |
| ICA1L_(450–465) on the SPOT array D11A |  |  | other: signal change in % [2]: -10% |
| MBOAT1_(16–31) on the SPOT array H21A |  | -55 |  |
| NCOA2_(1074–1089) on the SPOT array L1087A | -40 |  |  |
| MBOAT1_(16–31) on the SPOT array L31A |  | -25 |  |
| NCOA2_(1074–1089) on the SPOT array Q1082A | -45 |  |  |
| NCOA2_(1074–1089) on the SPOT array N1089A | -25 |  |  |
| NCOA2_(1074–1089) on the SPOT array G1077A | -5 |  |  |
| NCOA2_(1074–1089) on the SPOT array S1074A | 0 |  |  |
| ICA1L_(450–465) on the SPOT array L15A |  |  | other: signal change in % [2]: -20% |
| NCOA2_(1074–1089) on the SPOT array D1075A | -5 |  |  |
| MBOAT1_(16–31) on the SPOT array L27A |  | -20 |  |

Source: paper PMC10499821
